{"source": "patent US7244591", "target": "T1, recombinant human parathyroid hormone (hPTH), intact molecule (1-84), P01270", "T1 chain": "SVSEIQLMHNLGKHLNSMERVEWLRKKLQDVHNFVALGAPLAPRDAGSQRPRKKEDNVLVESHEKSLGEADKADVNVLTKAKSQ"}
{"protein": "Yapsin 1 (protein) ADGYEEIIITNQQSFYSVDLEVGTPPQNVTVLVDTGSSDLWIMGSDNPYCSSNSMGSSRRRVIDKRDDSSSGGSLINDINPFGWLTGTGSAIGPTATGLGGGSGTATQSVPASEATMDCQQYGTFSTSGSSTFRSNNTYFSISYGDGTFASGTFGTDVLDLSDLNVTGLSFAVANETNSTMGVLGIGLPELEVTYSGSTASHSGKAYKYDNFPIVLKNSGAIKSNTYSLYLNDSDAMHGTILFGAVDHSKYTGTLYTIPIVNTLSASGFSSPIQFDVTINGIGISDSGSSNKTLTTTKIPALLDSGTTLTYLPQTVVSMIATELGAQYSSRIGYYVLDCPSDDSMEIVFDFGGFHINAPLSSFILSTGTTCLLGIIPTSDDTGTILGDSFLTNAYVVYDLENLEISMAQARYNTTSENIEIITSSVPSAVKAPGYTNTWSTSASIVTGGNIFTVNSSQTASFSGNLTTSTASATSTSSKRN", "values": [{"measurement": "cleavage of secreted hPTH into the truncated d1 form (27-84), SDS-PAGE of culture supernatants of wild-type and yps1-disrupted strains", "value": "the main protease causative of the cleavage of hPTH in the early culture stage is Yapsin 1"}]}
